Positions count from the first letter of the chain named. In names and notes the source's numbering stands.
T1: full-length human C1s (produced in house) (human, UniProt P09871 16-688)
T1 construct: Called full-length; Partly auto-cleaved at R422-I423 on blots; also called HuC1s; Hu C1s
T1 sequence: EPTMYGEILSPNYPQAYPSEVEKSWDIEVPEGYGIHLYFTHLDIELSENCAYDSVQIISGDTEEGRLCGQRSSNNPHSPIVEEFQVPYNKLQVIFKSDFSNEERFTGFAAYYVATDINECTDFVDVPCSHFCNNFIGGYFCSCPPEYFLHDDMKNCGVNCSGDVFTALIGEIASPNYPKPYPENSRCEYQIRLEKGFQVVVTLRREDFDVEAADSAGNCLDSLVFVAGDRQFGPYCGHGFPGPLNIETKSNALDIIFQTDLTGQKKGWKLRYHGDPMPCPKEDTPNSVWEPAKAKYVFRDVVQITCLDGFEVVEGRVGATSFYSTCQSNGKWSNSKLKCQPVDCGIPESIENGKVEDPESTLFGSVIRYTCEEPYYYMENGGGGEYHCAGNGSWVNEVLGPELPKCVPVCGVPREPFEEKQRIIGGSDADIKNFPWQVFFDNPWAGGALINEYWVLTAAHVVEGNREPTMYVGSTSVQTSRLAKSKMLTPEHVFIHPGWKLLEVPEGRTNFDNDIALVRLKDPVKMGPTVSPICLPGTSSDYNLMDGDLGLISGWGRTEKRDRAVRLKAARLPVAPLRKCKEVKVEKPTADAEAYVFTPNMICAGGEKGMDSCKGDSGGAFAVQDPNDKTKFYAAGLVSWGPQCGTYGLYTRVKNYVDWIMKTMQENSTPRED

T2: human C1s mutant M11 (S349P) (human, UniProt P09871 16-688)
T2 construct: The entry is the mutant itself
T2 sequence: T1 sequence with S349P

B1: Anti-C1s antibody 2-7 (antibody, human IgG1, kappa, V domains shown)
VH: EVKLEESGGGLVPPGGSMKLSCVASGFTFSNYFMNWVRQSPEKGLEWVAEIRLKFTNYATHYAESVEGRFTISRDDSKSSVYLQMNNLRAEDTGIYYCTRDYGSRNGYFDYWGQGTTLTVSS
VL: DIVMTQAAPSVPVTPGESVSISCRSSKSLLHSNGNTFLYWFLQRPGQSPQLLIYRMSNLASGVPDRFSGSGSGTAFTLRVSRVEAEDVGIYYCMQHLEYPYTFGGGTKLEIKT
notes: the HC/LC entries may hold it too; also called clone 2-7
B2: Anti-C1s antibody hz2-8 (H1L2 G80A/T82A) (antibody, V domains shown)
VH: QVQLVQSGAEVKKPGASVKVSCKASGFNIKEYYMHWVRQAPEQGLEWMGWIDPENADAIYAQKFQGRVTITADTSTNTAYMELSSLRSEDTAVYYCARSRLFFAYWGQGTLVTVSS
VL: DIQMTQSPKSLSASVGDRVTITCRASQDVRTALDWYQQKPGQSPKLLIYSASYRYSGVPSRFSGSGSGTDFTLTISSLQPEDFATYYCQQQYTTPYTFGQGTKLEIKR
notes: Humanized variant with G80A and T82A in HC CDR2 (already in the entry), human IgG1 / kappa
B3: Anti-C1s antibody hz2-7(H1L2) (antibody, V domains shown)
VH: EVQLLESGGGLVQPGGSLRLSCAASGFTFSNYFMNWVRQAPGKGLEWVSEIRLKFTNYATHYADSVKGRFTISRDDSKSTLYLQMNSLRAEDTAVYYCTRDYGSRNGYFDYWGQGTLVTVSS
VL: DIVMTQTPLSLPVTPGEPASISCRSSKSLLHSNGNTFLYWFLQKPGQSPQLLIYRMSNLASGVPDRFSGSGSGTDFTLKISRVEAEDVGVYYCMQHLEYPYTFGGGTKLEIKR
notes: Humanized, human IgG1 / kappa; also called hz2-7(1L2)
B4: Anti-C1s antibody 2-8 (antibody, V domains shown)
VH: EVQLQQSGAELVRPGALVKLSCKASGFNIKEYYMHWVKQRPEQGLEWIGWIDPENGDTIYDPKFQGKASITADTSSNTAYLQLSSLTSEDTAVYYCARSRLFFAYWGQGTLVTVSA
VL: DIVMTQSHKFMSTSVGDRVSFTCKASQDVRTAVDWYQQKPGQSPKLLIYSASYRYTGVPDRFTGTGSGTDFTFTISSVQAEDLAVYFCQQQYTTPYTFGGGTKLEIKT
notes: the HC/LC entries may hold it too; also called clone 2-8
B5: Anti-C1s antibody hz2-8 (H1L2 G80A) (antibody, V domains shown)
VH: B2 VH with A58T
VL: B2 VL
notes: Humanized variant with G80A in HC CDR2 (already in the entry), human IgG1 / kappa

molecular target: T1, full-length human C1s (produced in …); experiment: ELISA, plate coated with 200 ng/well HuC1s, OD450nm
Experimental: The next morning, plates were blocked with SuperBlock T20 blocking buffer (Thermo Scientific 37536) for 1 h with gentle shaking. Then, various concentrations of anti-C1s antibodies diluted in SuperBlock T20 blocking buffer were added to the plates and incubated for 1 h with gentle shaking. Mouse IgG (Sigma-Aldrich I5381) and Human IgG1 (BioXCell BP0297) were used as negative controls. The plates were washed before incubating with HRP conjugated secondary antibodies diluted in SuperBlock T20 blocking buffer (goat anti-mouse IgG (H+L) cross-adsorbed secondary antibody HRP (Invitrogen G-21040) or goat anti-human IgG antibody, HRP conjugate (Millipore AP309P)) for 1 h with gentle shaking. At last, the plates were washed and color developed with ELISA liquid substrate (Sigma-Aldrich), followed by stopping the reaction with addition of the same volume of […] 1M H₂SO₄. Bound antibody was measured by absorbance at OD₄₅₀ₙₘ.

EC50 | Binder
6 ng/mL | B1
4 ng/mL | B2
6 ng/mL | B3
5 ng/mL | B4

molecular target: T2, human C1s mutant M11 (S349P); experiment: ELISA, plate coated with human C1s mutant M11: S349P, OD450nm
Experimental: (§1) ELISA was carried out by first coating 96-well plates with 200 ng/well of full-length or truncated C1s proteins overnight. The next morning, plates were blocked with SuperBlock T20 blocking buffer (Thermo Scientific 37536) for 1 h with gentle shaking. Then, various concentrations of anti-C1s antibodies diluted in SuperBlock T20 blocking buffer were added to the plates and incubated for 1 h with gentle shaking. Mouse IgG (Sigma-Aldrich 15381) and human IgG1 (BioXCell BP0297) were used as negative controls. The plates were washed before incubating with HRP conjugated secondary antibodies diluted in SuperBlock T20 blocking buffer (goat anti-mouse IgG (H+L) cross-adsorbed secondary antibody HRP (Invitrogen G-21040) or goat anti-human IgG antibody, HRP conjugate (Millipore AP309P)) for 1 h with gentle shaking. At last, the plates were washed and color developed with ELISA liquid HRP substrate (Sigma-Aldrich), followed by stopping the reaction with addition of 1M H₂SO₄ in the same volume as the ELISA liquid substrate. Bound antibody was measured by absorbance at OD₄₅₀ₙₘ.
Binding of anti-C1s antibodies to mutants M1-M20 of human C1s was measured by ELISA as described in Example 4, and results are shown in FIGS. 6B-6U. All anti-C1s humanized variants including hz2-7(H1L2), hz2-8(H1L2 G80A) and hz2-8(H1L2 G80A/T82A) maintained strong binding properties to the majority (16 out of 20) of C1s mutants including M1 (FIG. 6B), M2 (FIG. 6C), M3 (FIG. 6D). M4 (FIG. 6E), M7 (FIG. 6H), M8 (FIG. 6I), M10 (FIG. 6K), M11 (FIG. 6L), M12 (FIG. 6M), M13 (FIG. 6N), M15 (FIG. 6P), M16 (FIG. 6Q), M17 (FIG. 6R), M18 (FIG. 6S), M19 (FIG. 6T) and M20 (FIG. 6U).

EC50 | Binder
4 ng/mL | B5
5 ng/mL | B2
5 ng/mL | B3

molecular target: T1, full-length human C1s (produced in …); experiment: ELISA, plate coated with 200 ng/well full-length HuC1s, OD450nm
Experimental: as §1

EC50 | Binder
6 ng/mL | B1
5 ng/mL | B3
8 ng/mL | B4
